{"source": "patent US20230322953A1", "about": "(HARBOUR BIOMED SHANGHAI, published 2023)", "binders": {"B1": {"name": "PR001987 (bispecific antibody, human IgG1, lambda, L234A L235A)", "light": "QAVVTQEPSLTVSPGGTVTLTCRSSTGAVTTSNYANWVQQKPGQAPRGLIGGTNKRAPWTPARFSGSLLGDKAALTLLGAQPEDEAEYFCALWYSNLWVFGGGTKLTVLGQPKAAPSVTLFPPSSEELQANKATLVCLISDFYPGAVTVAWKADSSPVKAGVETTTPSKQSNNKYAASSYLSLTPEQWKSHRSYSCQVTHEGSTVEKTVAPTECS", "heavy": "EVQLLESGGGLVQPGGSLRLSCAASGFTFNTYAMNWVRQAPGKGLEWVSRIRSKYNNYATYYADSVKDRFTISRDDSKSTLYLQMNSLRAEDTAVYYCVRHGNFGNSYVSWFAYWGQGTLVTVSSASTKGPSVFPLAPSSKSTSGGTAALGCLVKDYFPEPVTVSWNSGALTSGVHTFPAVLQSSGLYSLSSVVTVPSSSLGTQTYICNVNHKPSNTKVDKKVEPKSCDKTHTCPPCPAPEAAGGPSVFLFPPKPKDTLMISRTPEVTCVVVDVSHEDPEVKFNWYVDGVEVHNAKTKPREEQYNSTYRVVSVLTVLHQDWLNGKEYKCKVSNKALGAPIEKTISKAKGQPREPQVYTLPPCREEMTKNQVSLWCLVKGFYPSDIAVEWESNGQPENNYKTTPPVLDSDGSFFLYSKLTVDKSRWQQGNVFSCSVMHEALHNHYTQKSLSLSPGK", "chain": "EVQLLESGGGLVQPGGSLRLSCAASGFTFSSYAMIWVRQAPGKGLEWVSGISESGGSTYYADSVKGRFTISRDNSKNTLYLQMNSLRAEDTAVYFCVKDLDDILTGYYKDYWGQGTLVTVSSASEPKSSDKTHTCPPCPAPEAAGGPSVFLFPPKPKDTLMISRTPEVTCVVVDVSHEDPEVKFNWYVDGVEVHNAKTKPREEQYNSTYRVVSVLTVLHQDWLNGKEYKCKVSNKALGAPIEKTISKAKGQPREPQVCTLPPSREEMTKNQVSLSCAVKGFYPSDIAVEWESNGQPENNYKTTPPVLDSDGSFFLVSKLTVDKSRWQQGNVFSCSVMHEALHNHYTQKSLSLSPGK", "notes": "Structure 11 (Fab-Fc-VH): CD3 Fab from PR000511, BCMA VH from PR000940; human IgG1 knob/hole, AAG; also called BCMA×CD3 bispecific antibody molecule of Fab-Fc-VH asymmetric structure"}, "B2": {"name": "PR001988 (bispecific antibody, human IgG1, lambda, L234A L235A)", "light": "B1 light", "heavy": "B1 heavy", "chain": "EVQLVETGGGLIQPGGSLRLSCAASGFPVSSNYMSWVRQAPGKGLEWVSVIFSGGRTYYADSVKGRFTISRDNSKNTLYLQMNSLRAEDTAVYYCARRNWIDGRDAFDIWGQGTMVTVSSASEPKSSDKTHTCPPCPAPEAAGGPSVFLFPPKPKDTLMISRTPEVTCVVVDVSHEDPEVKFNWYVDGVEVHNAKTKPREEQYNSTYRVVSVLTVLHQDWLNGKEYKCKVSNKALGAPIEKTISKAKGQPREPQVCTLPPSREEMTKNQVSLSCAVKGFYPSDIAVEWESNGQPENNYKTTPPVLDSDGSFFLVSKLTVDKSRWQQGNVFSCSVMHEALHNHYTQKSLSLSPGK", "notes": "Structure 11 (Fab-Fc-VH): CD3 Fab from PR000511, BCMA VH from PR000943; human IgG1 knob/hole, AAG"}, "B3": {"name": "PR001989 (bispecific antibody, human IgG1, lambda, L234A L235A)", "light": "B1 light", "heavy": "B1 heavy", "chain": "B2 chain with P28T, S35T, R56S, N99I, W100A, I101V, D102A, R104H, A106V", "notes": "Structure 11 (Fab-Fc-VH): CD3 Fab from PR000511, BCMA VH from PR001035; human IgG1 knob/hole, AAG"}, "B4": {"name": "PR001991 (bispecific antibody, human IgG1, kappa, L234A L235A)", "chain 1": "EVQLLESGGGLVQPGGSLRLSCAASGFTFNTYAMNWVRQAPGKGLEWVSRIRSKYNNYATYYADSVKDRFTISRDDSKSTLYLQMNSLRAEDTAVYYCVRHGNFGNSYVSWFAYWGQGTLVTVSSRTVAAPSVFIFPPSDEQLKSGTASVVCLLNNFYPREAKVQWKVDNALQSGNSQESVTEQDSKDSTYSLSSTLTLSKADYEKHKVYACEVTHQGLSSPVTKSFNRGEC", "chain 2": "QAVVTQEPSLTVSPGGTVTLTCRSSTGAVTTSNYANWVQQKPGQAPRGLIGGTNKRAPWTPARFSGSLLGDKAALTLLGAQPEDEAEYFCALWYSNLWVFGGGTKLTVLSSASTKGPSVFPLAPSSKSTSGGTAALGCLVKDYFPEPVTVSWNSGALTSGVHTFPAVLQSSGLYSLSSVVTVPSSSLGTQTYICNVNHKPSNTKVDKKVEPKSCDKTHTCPPCPAPEAAGGPSVFLFPPKPKDTLMISRTPEVTCVVVDVSHEDPEVKFNWYVDGVEVHNAKTKPREEQYNSTYRVVSVLTVLHQDWLNGKEYKCKVSNKALGAPIEKTISKAKGQPREPQVYTLPPCREEMTKNQVSLWCLVKGFYPSDIAVEWESNGQPENNYKTTPPVLDSDGSFFLYSKLTVDKSRWQQGNVFSCSVMHEALHNHYTQKSLSLSPGK", "chain 3": "B1 chain", "notes": "CD3 Fab from PR000511, BCMA VH from PR000940; IgG1 knob/hole, AAG"}, "B5": {"name": "PR001992 (bispecific antibody, human IgG1, kappa, L234A L235A)", "chain 1": "B4 chain 1", "chain 2": "B4 chain 2", "chain 3": "B2 chain", "notes": "Structure 12 (Fab(cross VH/VL)-Fc-VH): CD3 Fab from PR000511, BCMA VH from PR000943; IgG1 knob/hole, AAG"}, "B6": {"name": "PR000701, PD-L1×4-1BB bispecific antibody molecule of FIT-Ig structure (bispecific antibody, human IgG4 S228P, kappa)", "chain 1": "not shown", "chain 2": "EVQLVESGGGLVQPGGSLRLSCAASGFTFSSYWMSWVRQAPGKGLEWVANIKQEGSEKYYVDSVKGRFTISRDNAKNSLYLQMNSLRAEDTAVYYCARDRAVAGAFDIWGQGTMVTVSSASTKGPSVFPLAPSSKSTSGGTAALGCLVKDYFPEPVTVSWNSGALTSGVHTFPAVLQSSGLYSLSSVVTVPSSSLGTQTYICNVNHKPSNTKVDKKVEPKSC", "chain 3": "not shown", "notes": "FIT-Ig; Fab A of PR000265 (PD-L1), Fab B of PR000197 (4-1BB) close to Fc; no linker; human IgG4"}, "B7": {"name": "PR003551, PD-L1×4-1BB bispecific antibody molecule of IgG-VH tetravalent symmetric structure (bispecific antibody)", "light": "DIQMTQSPSTLSASVGDRVTVTCRASQSIYIWLAWYQQKPGKAPNLLIYKASSLETGVPSRFSGSGSGTEFTLTISSLQPDDFATYYCQQYYGSSRTFGQGTKVEIKRTVAAPSVFIFPPSDEQLKSGTASVVCLLNNFYPREAKVQWKVDNALQSGNSQESVTEQDSKDSTYSLSSTLTLSKADYEKHKVYACEVTHQGLSSPVTKSFNRGEC", "heavy": "EVQLVESGGGLVQPGGSLRLSCAASGFTFSSYWMSWVRQAPGKGLEWVANIKQEGSEKYYVDSVKGRFTISRDNAKNSLYLQMNSLRAEDTAVYYCARDRAVAGAFDIWGQGTMVTVSSASTKGPSVFPLAPSSKSTSGGTAALGCLVKDYFPEPVTVSWNSGALTSGVHTFPAVLQSSGLYSLSSVVTVPSSSLGTQTYICNVNHKPSNTKVDKKVEPKSCDKTHTCPPCPAPEAAGGPSVFLFPPKPKDTLMISRTPEVTCVVVDVSHEDPEVKFNWYVDGVEVHNAKTKPREEQYNSTYRVVSVLTVLHQDWLNGKEYKCKVSNKALGAPIEKTISKAKGQPREPQVYTLPPSREEMTKNQVSLTCLVKGFYPSDIAVEWESNGQPENNYKTTPPVLDSDGSFFLYSKLTVDKSRWQQGNVFSCSVMHEALHNHYTQKSLSLSPGEPKSSDKTHTPPPPPRTEVQLLESGGGLVQPGGSLRLSCAASGFIFSNFAMTWVRQPPEKGLKWVSSINGSGFNTYYTDSVKGRFTISRDNSRNTLYLQMNRLTAEDTAVYFCAKEGSSETDDHYYNVDVWGQGTTVTVSS", "notes": "Structure 5; IgG PR000265, VH of PR001836 at C-terminus of heavy chain; linker H1_15-RT; human IgG1 (L234A, L235A, P329G)"}, "B8": {"name": "PR000940, anti-BCMA HCAb antibody, clone 1005P10H8 (antibody, human IgG1, V domains shown)", "VH": "EVQLLESGGGLVQPGGSLRLSCAASGFTFSSYAMIWVRQAPGKGLEWVSGISESGGSTYYADSVKGRFTISRDNSKNTLYLQMNSLRAEDTAVYFCVKDLDDILTGYYKDYWGQGTLVTVSS", "notes": "Heavy-chain-only antibody (HCAb), human IgG1 Fc, no light chain"}}, "key": {"[1]": {"molecular_target": "T1, human CD3 (TCR/CD3 complex) on human T cells (human, UniProt P07766 23-207)", "T1 construct": "whole, on cells", "T1 sequence (P07766 23-207, one chain of several)": "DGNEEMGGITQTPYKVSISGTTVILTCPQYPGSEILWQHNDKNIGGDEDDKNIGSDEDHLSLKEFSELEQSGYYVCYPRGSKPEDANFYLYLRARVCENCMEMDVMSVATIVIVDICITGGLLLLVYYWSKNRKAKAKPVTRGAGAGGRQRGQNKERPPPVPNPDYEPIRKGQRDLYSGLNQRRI", "experiment": "flow cytometry (FACS) on human T cells, Experiment 1"}, "[2]": {"molecular_target": "T2, human PD-L1 (programmed death ligand 1) (human, UniProt Q9NZQ7 19-290)", "T2 construct": "whole, on cells; also called hPDL1; CD274", "T2 sequence (Q9NZQ7 19-290)": "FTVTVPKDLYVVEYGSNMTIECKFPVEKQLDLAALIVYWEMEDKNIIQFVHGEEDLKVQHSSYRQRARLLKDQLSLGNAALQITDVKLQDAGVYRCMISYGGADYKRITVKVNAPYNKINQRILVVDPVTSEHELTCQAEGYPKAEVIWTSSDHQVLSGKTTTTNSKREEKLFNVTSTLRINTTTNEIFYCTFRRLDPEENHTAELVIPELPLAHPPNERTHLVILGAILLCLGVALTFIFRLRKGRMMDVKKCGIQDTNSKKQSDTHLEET", "experiment": "flow cytometry (FACS) on CHO-K1/hPDL1 cells, Experiment 1"}, "[3]": {"molecular_target": "T3, human 4-1BB (tumor necrosis factor receptor superfamily member 9) (human, UniProt Q07011 24-255)", "T3 construct": "whole, on cells; also called hu 4-1BB; CD137", "T3 sequence (Q07011 24-255)": "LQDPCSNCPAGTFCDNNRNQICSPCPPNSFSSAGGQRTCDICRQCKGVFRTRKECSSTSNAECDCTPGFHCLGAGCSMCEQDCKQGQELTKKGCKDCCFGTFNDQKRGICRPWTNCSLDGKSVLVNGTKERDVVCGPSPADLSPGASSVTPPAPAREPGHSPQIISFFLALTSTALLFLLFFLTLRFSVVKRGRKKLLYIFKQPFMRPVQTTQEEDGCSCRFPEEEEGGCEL", "experiment": "flow cytometry (FACS) on CHO-K1/hu 4-1BB cells"}, "[4]": {"molecular_target": "T4, biotinylated human BCMA-Fc, Avitag recombinant protein (ACRO Biosystems, #BC7-H82F0) (human, UniProt Q02223 1-54, biotinylated)", "T4 construct": "extracellular domain; Bought protein; also called human BCMA protein; recombinant human BCMA-ECD-Fc; not shown: Fc of the bought fusion protein; Avitag", "T4 sequence (looked up)": "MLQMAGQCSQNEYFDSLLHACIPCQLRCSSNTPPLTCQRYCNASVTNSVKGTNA", "experiment": "BLI (Octet Red96e), biotinylated BCMA-Fc on SA sensor, antibody in solution, 1:1 global fit"}, "[5]": {"molecular_target": "T5, human BCMA (human, UniProt Q02223 1-184)", "T5 construct": "whole, on cells; the cell line is named under assay; also called TNFRSF17; CD269", "T5 sequence (looked up)": "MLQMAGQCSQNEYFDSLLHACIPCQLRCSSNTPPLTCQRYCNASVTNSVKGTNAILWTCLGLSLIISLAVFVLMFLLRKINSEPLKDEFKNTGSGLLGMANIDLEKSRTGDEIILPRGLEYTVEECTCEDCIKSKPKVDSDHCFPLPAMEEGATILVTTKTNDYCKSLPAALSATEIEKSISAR", "experiment": "flow cytometry, NCI-H929 cells"}}, "note": "Substitutions are numbered along the chain they refer to. Numbers in names are those of the source.", "data": [{"binder": "B1", "values": [{"measurement": "Maximum MFI", "setting": "[1]", "value": 5160, "unit": "MFI"}]}, {"binder": "B2", "values": [{"measurement": "Maximum MFI", "setting": "[1]", "value": 5800, "unit": "MFI"}]}, {"binder": "B3", "values": [{"measurement": "Maximum MFI", "setting": "[1]", "value": 6680, "unit": "MFI"}]}, {"binder": "B4", "values": [{"measurement": "Maximum MFI", "setting": "[1]", "value": 3240, "unit": "MFI"}]}, {"binder": "B5", "values": [{"measurement": "Maximum MFI", "setting": "[1]", "value": 2240, "unit": "MFI"}]}, {"binder": "B6", "values": [{"measurement": "EC50", "setting": "[2]", "value": 1.72, "unit": "nM"}, {"measurement": "Maximum MFI", "setting": "[2]", "value": 1710, "unit": "MFI"}, {"measurement": "EC50", "setting": "[3]", "value": 10.2, "unit": "nM"}, {"measurement": "Maximum MFI", "setting": "[3]", "value": 1340, "unit": "MFI"}]}, {"binder": "B7", "values": [{"measurement": "EC50", "setting": "[2]", "value": 1.29, "unit": "nM"}, {"measurement": "Maximum MFI", "setting": "[2]", "value": 2150, "unit": "MFI"}, {"measurement": "EC50", "setting": "[3]", "value": 3.15, "unit": "nM"}, {"measurement": "Maximum MFI", "setting": "[3]", "value": 1570, "unit": "MFI"}]}, {"binder": "B8", "values": [{"measurement": "Kd", "setting": "[4]", "value": 0.152, "unit": "nM"}, {"measurement": "koff", "setting": "[4]", "value": "6.09e-05", "unit": "s⁻¹"}, {"measurement": "kon", "setting": "[4]", "value": 401000, "unit": "M⁻¹ s⁻¹"}, {"measurement": "EC50", "setting": "[5]", "value": 1.85, "unit": "nM"}, {"measurement": "Maximum MFI", "setting": "[5]", "value": 91000}]}]}
